Test results: patent publication US20250144141A1 (CDR LIFE, published 2025)

Tests used:
[1] = target: T1, HLA-A*02:01/MAGE-A4 complex (human, UniProt P04439 25-299 at identity 0.94); P61769 21-119); assay: direct ELISA, plate coated with HLA-A*02:01/MAGE-A4 complex, as in Example 6
T1 construct: Coated on ELISA plates and on a streptavidin SPR chip; a biotin tag is not described; also called HLA-A2/MAGE-A4 complex; pMHC-MAGE-A4

[2] = target: T1, HLA-A*02:01/MAGE-A4 complex; assay: SPR
[3] = target: HLA-A*02:01/MAGE-A4 displayed on T2 cells (human); assay: cell-based or functional assay
[4] = target: T1, HLA-A*02:01/MAGE-A4 complex; assay: SPR (Biacore T200), HLA-A*02:01/MAGE-A4 as ligand; sample kept in human serum at 37 C for 0, 7 and 24 h and injected after 1:100 dilution; signal relative to the start sample

| Binder | Kd [2] [nM] | also measured |
| --- | --- | --- |
| M0873 (antibody, V domains shown) VH: ESQVLESGGGSVQPGGSLRLSCTVSGFSLSNYAMSWVRQAPGKGLEYIGIVSSGGTTYYASWAKGRFTISKDTSKNTVYLQMNSLRAEDTASYYCAKDLYYGPTTYSAFNLWGQGTSVTVSS VL: SYELTQPPSVSVSPGQTASITCTADTLSRSYASWYQQKPGQSPVLVIYRDTSRPSGIPERFSGSNSGNTATLTISGTQAMDEADYYCATSDGSGSNFQLFGGGTKLTVL |  | EC50 (read off the curve) [1]: ~1 nM |
| M1068 (bispecific antibody) chain 1: SYELTQPPSVSVSPGQTASITCTADTLSRSYASWYQQKPGQSPVLVIYRDTSRPSGIPERFSGSNSGNTATLTISGTQAMDEADYYCATRPSSGSNFQLFGGGTKLTVLGGGGGGSGGGGSGGGGSGGGGSEVQLLESGGGSVQPGGSLRLSCTVSGFSLSNYAMSWVRQAPGKGLEWIGIVSSGGTTYYASWAKGRFTISKDTSKNTVYLQMNSLRAEDTASYYCAKDLYYGPTTYSAFNLWGQGTSVTVSS chain 2: EVQLVESGGGLVQPGGSLRLSCAASGFTFSTYAMNWVRQAPGKGLEWVGRIRSKYNNYATYYADSVKGRFTISRDDSKNTLYLQMNSLRAEDTAVYYCVRHGNFGDSYVSWFAYWGQGTLVTVSSASTKGPSVFPLAPSSKSTSGGTAALGCLVKDYFPEPVTVSWNSGALTSGVHTFPAVLQSSGLYSLSSVVTVPSSSLGTQTYICNVNHKPSNTKVDKRVEPKSC chain 3: QAVVTQEPSLTVSPGGTVTLTCGSSTGAVTTSNYANWVQQKPGKSPRGLIGGTNKRAPGVPARFSGSLLGGKAALTISGAQPEDEADYYCALWYSNHWVFGGGTKLTVLGQPKAAPSVTLFPPSSEELQANKATLVCLISDFYPGAVTVAWKADSSPVKAGVETTTPSKQSNNKYAASSYLSLTPEQWKSHRSYSCQVTHEGSTVEKTVAPTECS | 1 |  |
| M1312 (bispecific antibody) chain 1: SSELTQDPAVSVALGQTVRITCTADTLSRSYASWYQQKPGQAPVLVIYRDTSRPSGIPDRFSGSSSGNTASLTITGAQAEDEADYYCATRPSSGSNFQLFGGGTKLTVLGGGGGSGGGGSGGGGSGGGGSEVQLLESGGGSVQPGGSLRLSCTVSGFSLSNYAMSWVRQAPGKGLEWIGIVSSGGTTYYASWAKGRFTISKDTSKNTVYLQMNSLRAEDTASYYCAKDLYYGPNTDYSAANLWGQGTSVTVSS chain 2: EVQLVESGGGLVQPGGSLRLSCAASGFTFSTYAMNWVRQAPGKGLEWVGRIRSKYNNYATYYADSVKGRFTISRDDSKNTLYLQMNSLRAEDTAVYYCVRHGNFGDSYVSWFAYWGQGTLVTVSSASTKGPSVFPLAPSSKSTSGGTAALGCLVKDYFPEPVTVSWNSGALTSGVHTFPAVLQSSGLYSLSSVVTVPSSSLGTQTYICNVNHKPSNTKVDKRVEPKSC chain 3: QAVVTQEPSLTVSPGGTVTLTCGSSTGAVTTSNYANWVQQKPGKSPRGLIGGTNKRAPGVPARFSGSLLGGKAALTISGAQPEDEADYYCALWYSNHWVFGGGTKLTVLGQPKAAPSVTLFPPSSEELQANKATLVCLISDFYPGAVTVAWKADSSPVKAGVETTTPSKQSNNKYAASSYLSLTPEQWKSHRSYSCQVTHEGSTVEKTVAPTECS | 0.8 |  |
| M1394 (bispecific antibody) chain 1: SSELTQDPAVSVALGQTVRITCTADTLSRSYASWYQQKPGQAPVLVIYRDTSRPSGIPDRFSGSSSGNTASLTITGAQAEDEADYYCATRPSSGSNFQLFGGGTKLTVLGGGGGSGGGGSGGGGSGGGGSEVQLLESGGGSVQPGGSLRLSCTVSGFSLSNYAMSWVRQAPGKGLEWIGIVSSGGTTYYASWAKGRFTISRDNSKNTVYLQMNSLRAEDTASYYCAKDLYYGPNTDYSAANLWGQGTSVTVSS chain 2: EVQLVESGGGLVQPGGSLRLSCAASGFTFSTYAMNWVRQAPGKGLEWVGRIRSKYNNYATYYADSVKGRFTISRDDSKNTLYLQMNSLRAEDTAVYYCVRHGNFGDSYVSWFAYWGQGTLVTVSSASTKGPSVFPLAPSSKSTSGGTAALGCLVKDYFPEPVTVSWNSGALTSGVHTFPAVLQSSGLYSLSSVVTVPSSSLGTQTYICNVNHKPSNTKVDKRVEPKSC chain 3: QAVVTQEPSLTVSPGGTVTLTCGSSTGAVTTSNYANWVQQKPGKSPRGLIGGTNKRAPGVPARFSGSLLGGKAALTISGAQPEDEADYYCALWYSNHWVFGGGTKLTVLGQPKAAPSVTLFPPSSEELQANKATLVCLISDFYPGAVTVAWKADSSPVKAGVETTTPSKQSNNKYAASSYLSLTPEQWKSHRSYSCQVTHEGSTVEKTVAPTECS | 1.4 |  |
| M1397 (bispecific antibody, Fab(scFv)2 dual pMHC-targeting T cell engager, no Fc; also called dual engager M1397; dual T cell engager M1397) heavy: EVQLVESGGGLVQPGGSLRLSCAASGFTFSTYAMNWVRQAPGKGLEWVGRIRSKYNNYATYYADSVKGRFTISRDDSKNTLYLQMNSLRAEDTAVYYCVRHGNFGDSYVSWFAYWGQGTLVTVSSASTKGPSVFPLAPSSKSTSGGTAALGCLVKDYFPEPVTVSWNSGALTSGVHTFPAVLQSSGLYSLSSVVTVPSSSLGTQTYICNVNHKPSNTKVDKRVEPKSCGGGGSQSVLTQDPAVSVALGQTVRITCTADTLSRSYASWYQQKPGQAPVLVIYRDTSRPSGIPDRFSGSSSGNTASLTITGAQAEDEADYYCATRPSSGSNFQAFGGGTKLTVLGGGGGSGGGGSGGGGSGGGGSEVQLLESGGGSVQPGGSLRLSCTVSGFSLSNYAMSWVRQAPGKGLEWIGIVSSGGTTYYADSVKGRFTISRDNSKNTVYLQMNSLRAEDTASYYCAKDLYYGPNTDYSAANLWGQGTSVTVSS light: QAVVTQEPSLTVSPGGTVTLTCGSSTGAVTTSNYANWVQQKPGKSPRGLIGGTNKRAPGVPARFSGSLLGGKAALTISGAQPEDEADYYCALWYSNHWVFGGGTKLTVLGQPKAAPSVTLFPPSSEELQANKATLVCLISDFYPGAVTVAWKADSSPVKAGVETTTPSKQSNNKYAASSYLSLTPEQWKSHRSYSCQVTHEGSTVEKTVAPTECSGGGGSQSVLTQDPAVSVALGQTVRITCTADTLSRSYASWYQQKPGQAPVLVIYRDTSRPSGIPDRFSGSSSGNTASLTITGAQAEDEADYYCATRPSSGSNFQAFGGGTKLTVLGGGGGSGGGGSGGGGSGGGGSEVQLLESGGGSVQPGGSLRLSCTVSGFSLSNYAMSWVRQAPGKGLEWIGIVSSGGTTYYADSVKGRFTISRDNSKNTVYLQMNSLRAEDTASYYCAKDLYYGPNTDYSAANLWGQGTSVTVSS |  | IFN-gamma release (T cell activation) with PBMCs and T2 cells pulsed with titrated peptide, compound at 1 nM; EC50 on the peptide concentration [3]: 5.75 nM; binding result [4]: binds |
